Laboratory results from patent publication US9289478B2, “Formulations of tumour-associated peptides binding to human leukocyte antigen (HLA) class I or class II molecules for vaccine” (IMMATICS BIOTECHNOLOGIES GMBH, priority 2008, dated 2016).

Experiments:
Type in all cases: physicochemical
[1] = HPLC-assay for in-use stability after reconstitution with 4.2% sodium hydrogen carbonate solution (Example 3, peptides SEQ ID NO 11-23)
Method: For clinical trials the above described formulation is dissolved in 700 μl sodium hydrogen carbonate (4.2%). To dissolve the lyophilisate, the vial and the diluent shall be shaken vigorously for 1 minute, check whether solution is clear, otherwise continue shaking for another minute until the solution is clear. Administration of 500 μL of the solution has to occur within 1 h after reconstitution. Dissolved lyophilisate may be stored aseptically at room temperature for up to 1 hour following reconstitution.
(§1) Identity, purity and peptide content are determined by analytical RP-HPLC chromatography. Detection wavelength was 220 nm.

[2] = HPLC-assay for stability of peptides in lyophilised formulation on storage for 3 months (Example 4); settings: for stability of peptides in formulation, 1 M: 1 month; for stability of peptides in formulation, 2 M: 2 months; for stability of peptides in formulation, 3 M: 3 months
Method: as §1

[3] = HPLC-assay for in-use stability after reconstitution with 4.2% sodium hydrogen carbonate solution (Example 2, peptides SEQ ID NO 1-10)
Method: Resolubilization procedure: For clinical trials the above described formulation is dissolved in 700 μl sodium hydrogen carbonate (4.2%). Remove plastic cap from one vial. Unpack and remove sodium hydrogen carbonate (4.2%) from the refrigerator at least 30 min before resolubilization to bring them up to room temperature before injection. Prepare syringe and needle for reconstitution. Use aseptic technique to take 700 μL of diluent for reconstitution of the lyophilisate. To dissolve the lyophilisate, the vial and the diluent shall be shaken vigorously for 1 minute, check whether solution is clear, otherwise continue shaking for another minute until the solution is clear. 10 to 30 minutes after GM-CSF injection, use a new syringe to administer 500 μL reconstituted formulation i.d. at the same site. Administration has to occur within 1 h after reconstitution. Dissolved lyophilisate may be stored aseptically at room temperature for up to 1 hour following reconstitution.
However, a decrease of two specific peptides, i.e. IMA-CCN-001 and IMA-RGS-001 took place (see Table 6). As these peptides contain a cysteine residue, time-depending dimerization takes place.
as §1

[4] = +mannitol/lutrol, 1 h after reconstitution
[5] = +mannitol/lutrol, 2 h after reconstitution
[6] = +mannitol/lutrol, 3 h after reconstitution
[7] = +mannitol/lutrol, 4 h after reconstitution
[8] = +mannitol/lutrol, 5 h after reconstitution
[9] = +mannitol/lutrol, 6 h after reconstitution
[10] = +mannitol/lutrol, Initial (starting value set to 100%)
[11] = no excipients, 1 h after reconstitution
[12] = no excipients, 2 h after reconstitution
[13] = no excipients, 3 h after reconstitution
[14] = no excipients, Initial (starting value set to 100%)

Sequence	in-use stability, Peptide [%] ([1]; +Mannitol/Lutrol, 2h)	in-use stability, Peptide [%] ([1]; +Mannitol/Lutrol, 4h)	in-use stability, Peptide [%] ([1]; +Mannitol/Lutrol, 6h)	in-use stability, Peptide [%] ([1]; +Mannitol/Lutrol, Initial)	in-use stability, Peptide [%] ([1]; no excipients, 2h)	in-use stability, Peptide [%] ([1]; no excipients, 4h)	in-use stability, Peptide [%] ([1]; no excipients, 6h)	in-use stability, Peptide [%] ([1]; no excipients, Initial)	stability of peptides in formulation, 1 M ([2]; +5° C. +/- 3° C.)	stability of peptides in formulation, 2 M ([2]; +5° C. +/- 3° C.)	stability of peptides in formulation, 3 M ([2]; +5° C. +/- 3° C.)	stability of peptides in formulation, INITIAL ([2]; +5° C. +/- 3° C.)	stability of peptides in formulation, 1 M ([2]; +25° C. +/- 2° C.)	stability of peptides in formulation, 2 M ([2]; +25° C. +/- 2° C.)	stability of peptides in formulation, 3 M ([2]; +25° C. +/- 2° C.)	stability of peptides in formulation, INITIAL ([2]; +25° C. +/- 2° C.)	stability of peptides in formulation, 1 M ([2]; -20° C. +/- 5° C.)	stability of peptides in formulation, 2 M ([2]; -20° C. +/- 5° C.)	stability of peptides in formulation, 3 M ([2]; -20° C. +/- 5° C.)	stability of peptides in formulation, INITIAL ([2]; -20° C. +/- 5° C.)	further results
AIIDGVESV (listed as Homo sapiens) [PTP-003, Protein tyrosine phosphatase, receptor-type, Z polypeptide 1 peptide]	100.3%	100.5%	100.1%	100.0%	100.4%	100.9%	96.1%	100.0%	99.07 % of Initial	97.95 % of Initial	98.68 % of Initial	100.0%	98.29 % of Initial	97.11 % of Initial	98.29 % of Initial	100.0%	99.11 % of Initial	97.48 % of Initial	98.57 % of Initial	100.0%	
ALADGVQKV (listed as Homo sapiens) [APO-001, Apolipoprotein L1 tumour-associated peptide]																					in-use stability, peptide by HPLC-assay [3, 4]: 99.8%; in-use stability, peptide by HPLC-assay [3, 5]: 99.8%; in-use stability, peptide by HPLC-assay [3, 6]: 100.7%; in-use stability, peptide by HPLC-assay [3, 7]: 100.9%; in-use stability, peptide by HPLC-assay [3, 8]: 99.6%; in-use stability, peptide by HPLC-assay [3, 9]: 101.5%; in-use stability, peptide by HPLC-assay [3, 10]: 100.0%; in-use stability, peptide by HPLC-assay [3, 11]: 100.0%; in-use stability, peptide by HPLC-assay [3, 12]: 97.4%; in-use stability, peptide by HPLC-assay [3, 13]: 97.4%; in-use stability, peptide by HPLC-assay [3, 14]: 100.0%
ALFDGDPHL (listed as Homo sapiens) [K67-001, KIAA0367 tumour-associated peptide]																					in-use stability, peptide by HPLC-assay [3, 4]: 99.8%; in-use stability, peptide by HPLC-assay [3, 5]: 100.4%; in-use stability, peptide by HPLC-assay [3, 6]: 101.6%; in-use stability, peptide by HPLC-assay [3, 7]: 101.8%; in-use stability, peptide by HPLC-assay [3, 8]: 100.6%; in-use stability, peptide by HPLC-assay [3, 9]: 102.5%; in-use stability, peptide by HPLC-assay [3, 10]: 100.0%; in-use stability, peptide by HPLC-assay [3, 11]: 100.8%; in-use stability, peptide by HPLC-assay [3, 12]: 99.2%; in-use stability, peptide by HPLC-assay [3, 13]: 97.5%; in-use stability, peptide by HPLC-assay [3, 14]: 100.0%
ALWAWPSEL (listed as Homo sapiens) [BCA-002, Brevican tumour-associated peptide]	99.8%	99.6%	98.9%	100.0%	99.9%	100.1%	95.4%	100.0%	99.13 % of Initial	98.04 % of Initial	98.73 % of Initial	100.0%	98.20 % of Initial	97.05 % of Initial	97.88 % of Initial	100.0%	99.17 % of Initial	97.61 % of Initial	98.61 % of Initial	100.0%	
AMTQLLAGV (listed as Homo sapiens) [TNC-001, Tenascin C peptide]	100.5%	100.6%	100.2%	100.0%	100.0%	100.4%	95.7%	100.0%	99.02 % of Initial	98.10 % of Initial	98.72 % of Initial	100.0%	97.86 % of Initial	96.80 % of Initial	97.21 % of Initial	100.0%	99.01 % of Initial	97.61 % of Initial	98.57 % of Initial	100.0%	
